B1: GST-GM-(E2-P243): GST fusion of amino acids 2-243 of human GM (protein)
chain: EPSEVPSQISKDNFLEVPNLSDSLCEDEEVTFQPGFSPQPSRRGSDSSEDIYLDTPSSGTRRVSFADSFGFNLVSVKEFDCWELPSASTTFDLGTDIFHTEEYVLAPLFDLPSSKEDLMQQLQIQKAILESTESLLGSTSIKGIIRVLNVSFEKLVYVRMSLDDWQTHYDILAEYVPNSCDGETDQFSFKIVLVPPYQKDGSKVEFCIRYETSVGTFWSNNNGTNYTFICQKKEQEPEPVKP
modifications: left off: a dimerising Fc or GST
notes: GST fusion of amino acids 2-243 of human GM
B2: M110-(M1-A150): rat aorta M110 fragment, residues 1-150 (protein, UniProt Q10728 1-150, looked up, fragment)
chain: MKMADAKQKRNEQLKRWIGSETDLEPPVVKRQKTKVKFDDGAVFLAACSSGDTDEVLKLLHRGADINYANVDGLTALHQACIDDNVDMVKFLVENGANINQPDNEGWIPLHAAASCGYLDIAEFLIGQGAHVGAVNSEGDTPLDIAEEEA
B3: M110-(L24-Y496): rat aorta M110 fragment, residues 24-496 (protein, UniProt Q10728 24-496, looked up, fragment)
chain: LEPPVVKRQKTKVKFDDGAVFLAACSSGDTDEVLKLLHRGADINYANVDGLTALHQACIDDNVDMVKFLVENGANINQPDNEGWIPLHAAASCGYLDIAEFLIGQGAHVGAVNSEGDTPLDIAEEEAMEELLQNEVNRQGVDIEAARKEEERIMLRDARQWLNSGHISDVRHAKSGGTALHVAAAKGYTEVLKLLIQAGYDVNIKDYDGWTPLHAAAHWGKEEACRILVDNLCDMETVNKVGQTAFDVADEDILGYLEELQKKQNLLHSEKRDKKSPLIESTANMENNQPQKTFKNKETLIIEPEKNASRIESLEQEKADEEEEGKKDESSCSSEEDEEDDSESEAETDKTKPMASVTNAHTASTQAAPAAVTTPTLSSNQGTPTSPVKKFPTSTTKISPKEEERKDESPASWRLGLRKTGSYGALAEITASKEAQKEKDTAGVIRSASSPRLSSSLDNKEKEKDNKGTRLAY
B4: GST-M110-(M1-S477): GST fusion of rat aorta M110 residues 1-477 (protein)
chain: MKMADAKQKRNEQLKRWIGSETDLEPPVVKRQKTKVKFDDGAVFLAACSSGDTDEVLKLLHRGADINYANVDGLTALHQACIDDNVDMVKFLVENGANINQPDNEGWIPLHAAASCGYLDIAEFLIGQGAHVGAVNSEGDTPLDIAEEEAMEELLQNEVNRQGVDIEAARKEEERIMLRDARQWLNSGHISDVRHAKSGGTALHVAAAKGYTEVLKLLIQAGYDVNIKDYDGWTPLHAAAHWGKEEACRILVDNLCDMETVNKVGQTAFDVADEDILGYLEELQKKQNLLHSEKRDKKSPLIESTANMENNQPQKTFKNKETLIIEPEKNASRIESLEQEKADEEEEGKKDESSCSSEEDEEDDSESEAETDKTKPMASVTNAHTASTQAAPAAVTTPTLSSNQGTPTSPVKKFPTSTTKISPKEEERKDESPASWRLGLRKTGSYGALAEITASKEAQKEKDTAGVIRSASSPRLSSAANSISSLIHRD
modifications: left off: a dimerising Fc or GST
B5: GST-GM-(E2-D118): GST fusion of amino acids 2-118 of human GM (protein)
chain: EPSEVPSQISKDNFLEVPNLSDSLCEDEEVTFQPGFSPQPSRRGSDSSEDIYLDTPSSGTRRVSFADSFGFNLVSVKEFDCWELPSASTTFDLGTDIFHTEEYVLAPLFDLPSSKEDQLNSS
modifications: left off: a dimerising Fc or GST
notes: GST fusion of amino acids 2-118 of human GM

Columns and labels:
PP1c (γ1-isoform) = PP1c (γ1-isoform) (Homo sapiens, UniProt P36873); assay: Far Western: GST-GM fusion proteins probed with digoxygenin-labelled PP1γ; type: binding; settings: GST-fusion proteins on blot probed with digoxygenin-labelled PP1γ
Excerpt: GST-GM fusion proteins were electrophoresed on 10% SDS/polyacrylamide gels and stained with Coomassie blue (lanes 1-3) or, after transfer to nitrocellulose, probed with digoxygenin-labelled PP1γ (lanes 4-6) as in [9]. Lanes 1 and 4, GST-GM-(E2-D118); Lanes 2 and 5, GST-GM-(H100-P350); Lanes 3 and 6, GST. The positions of the marker proteins glycogen phosphorylase (97 kDa), bovine serum albumin (66 kDa), ovalbumin (43 kDa), carbonic anhydrase (29 kDa) and soybean trypsin inhibitor (20 kDa) are indicated.
(§1) The myosin-associated form of PP1 (PP1M) was from chicken gizzard and the glycogen-associated form of PP1 (PP1G) from rabbit skeletal muscle. The β isoform of PP1c was released from PP1G by incubation for 2 hours in 2M LiBr, then purified by gel-filtration on a 30×1 cm column of Superose 12 (Pharmacia, Milton Keynes, U.K.) in the presence of 0.5M LiBr. Glycogen protein particles from rat liver were used as the source of hepatic PP1G Digoxygenin-labelled PP1c (γ1-isoform, hereafter termed PP1) was prepared as in [9]. GL was expressed in E. coli as a glutathione-S-transferase (GST) fusion protein [7], termed GST-GL. The catalytic subunit of PP2A from bovine heart (PP2AC) was provided by Dr R. MacKintosh in this Unit. The phosphorylatable myosin light chain (MLC20) and heavy meromyosin from chicken gizzard were a gift from Dr M. Ikebe (Case Western Reserve University, Cleveland, USA). Thrombin and benzamidine-Agarose were purchased from Sigma (Poole, UK).
The amino acid sequence of rat hepatic GL is 23% identical (39% similar) to residues 1-286 of GM from human skeletal muscle. […] Fusion proteins in which GST was linked to fragments of GM were therefore tested for their ability to bind to PP1c. […] We therefore synthesised GM-(G63-T93) and examined its effect on the enzymatic properties of PP1GL, the form of PP1 associated with rat hepatic protein-glycogen particles.

PP1c [1] = target: T1, PP1c (Oryctolagus cuniculus, UniProt P62143); assay: Phosphorylase phosphatase activity of PP1c; type: biochemical, rabbit
T1 construct: from tissue; host or cells: rabbit skeletal muscle (PP1G dissociated with LiBr)
Procedure: (§2) A,B; Effects of M110-(M1-E309) (closed circles), M110-(M1-F38) (open circles) and M110-(D39-E309) (open triangles) on the MLC20 phosphatase […] and phosphorylase phosphatase (B) activities of PP1c were measured after incubating PP1c for 15 minutes at 30° C. with each fragment. The results are presented as a percentage of those obtained in experiments where the M110 fragments were omitted.
(§3) C,D; The effect of M110-(M1-A150) (open circles) and M110-(L24-Y496) (closed circles) on the MLC20 phosphatase (C) and phosphorylase phosphatase (D) activities of PP1c were measured as in A,B.
(B) The phosphorylase phosphatase activity of PP1c was assayed as in A in the presence or absence of 1 μM GM-(G63-T93) and 1.0 nM M110-(M1-E309). The results are presented (SEM for three experiments) as a percentage of the PP1c activity measured in the absence of GM-(63-T93), M110-(M1-F38) or M110-(M1-E309).
as §1
(§4) ^32P-labelled rabbit skeletal muscle phosphorylase a (containing 1.0 mol phosphate per mol subunit) was prepared by phosphorylation with phosphorylase kinase, ^32P-labelled rabbit skeletal muscle glycogen synthase (containing 1.5 mol/mol subunit in the sites 3 region) was prepared by phosphorylation with glycogen synthase kinase-3 [24]). ^32P-labelled chicken gizzard MLC20 and ^32P-labelled chicken gizzard heavy meromyosin (containing 1.0 mol phosphate per mol subunit) were prepared by phosphorylation with smooth muscle myosin light chain kinase. The dephosphorylation of phosphorylase a (10 μM), glycogen synthase (1 μM) and MLC20 (1 μM) and heavy meromyosin (1 μM) was carried out as in [24]. One unit of activity (U) was that amount which released […] of phosphate in one minute.
(§5) PP1c was isolated from the rabbit skeletal muscle PP1-GM complex as described previously (Johnson et al, 1996). Glycogen particles isolated from rat liver (Schelling el al, 1988) served as the source of PP1-GL. The dephosphorylation of glycogen phosphorylase (10 μM) and the isolated MLC20 of smooth muscle myosin (1 μM) by PP1c was carried out as described previously (Cohen et al., 1988; Alessi et al., 1992).

PP1c [2] = target: T1, PP1c; assay: MLC20 (myosin P-light chain) phosphatase activity of PP1c; type: biochemical
Procedure: as §2, §3
(A) The MLC20 phosphatase activity of PP1c was assayed after incubation for 15 minutes at 30° C. in the presence or absence of 1 μM GM-(G63-T93) and either 0.1 μM M110-(M1-F38) or 0.1 nM M110-(M1-E309).
(1-38, open circles) or M110[M1-K35] (1-35, closed circles) were incubated with PP1c for 15 min at 30° C. and reactions started with the ^32P-labelled MLC20 substrate. The results are expressed as a % of the activity determined in control incubations where the M110 peptides were omitted (100%). Similar results were obtained in three separate experiments.
as §1, §4, §5
^32P-labelled myosin P-light chains containing 1.0 mol phosphate per mol subunit was prepared by phosphorylation with smooth muscle myosin light chain kinase. The dephosphorylation of myosin P-light chain (1 μM) was carried out as in [4] and one unit of activity (U) was that amount which catalysed the release of 1 μmole of phosphate in one min. When assaying PP1M in immunoprecipitates from the myofibrillar extracts, the tubes were shaken continuously and 3 nM okadaic acid was included to inhibit any PP2A present.

myosin = target: T2, myosin (Gallus gallus, UniProt P10587); assay: Myosin binding assay (pelleting with myosin); parameters: species or system chicken; settings: myosin 1 μM, 15 min 0° C.
T2 construct: from tissue; host or cells: chicken gizzard
Procedure: The PP1 catalytic subunit (PP1c), PP1M, or PP1M lacking the M21 subunit, PP1M(ΔM21), each at 30 nM, were incubated for 15 min at 0° C. with 1 μM myosin and centrifuged (see Methods of Example 3). […] The results shown are the average (±S.E.M.) for three separate experiments each assayed in duplicate.
(A); PP1M, M110-(M1-S477) and GST-M110-(M377-K976), each at 30 nM were incubated for 15 min at 0° C. with 1 μM myosin and centrifuged. The supernatants (S), resuspended pellets (P) and the suspension before centrifugation (T, total) were electrophoresed on 12% SDS/polyacrylamide gels, transferred to nitrocellulose and immunoblotted with antibodies raised against the PP1M holoenzyme. No protein was pelleted in the absence of myosin (not shown). The positions of the marker proteins myosin heavy chain (200 kDa), glycogen phosphorylase (97 kDa), bovine serum albumin (66 kDa), ovalbumin (43 kDa), carbonic anhydrase (29 kDa) and soybean trypsin inhibitor (20 kDa) are indicated. (B) The experiments were carried out as in (A), except that the M110 fragments and M21 subunit were used at 100 nM, the 8.5 kDa M110-(K933-I1004) fragment was electrophoresed on a 16.5% polyacrylamide gel and immunoblotting was carried out with affinity purified antibodies (see Methods). A small amount of M110-(R714-I1004) pelleted in the absence of myosin. […] No other protein was pelleted in the absence of myosin.
(A); Myosin (1 μM) was mixed with 50 μM, 20 μM or 10 μM M21 subunit to give the molar ratios M21:myosin dimer indicated. After 15 min at 0° C., the solutions were centrifuged and the supernatants (S), resuspended pellets (P) and the suspension before centrifugation (T, total) were electrophoresed on 12% SDS/polyacrylamide gels and stained with Coomassie blue. The positions of the myosin heavy chain (MHC) and the M21 subunit are indicated. The myosin light chains migrate faster than the M21 subunit and are not visible at these loadings.
Myosin binding assays. Myosin (0.5 mg/ml, 1 μM in terms of myosin heavy chains) in 10 mM Hepes pH 7.5, 50 mM KCl, 5 mM MgCl2, 0.1% (by vol) 2-mercaptoethanol, was mixed with PP1M, M21 subunit, or fragments of the M110 and M21 subunits, at the concentrations indicated in figure legends. After incubation for 15 min at 0° C., the solutions were centrifuged for 2 min at 13,000×g, the supernatants removed, and the pellets washed twice in 10 mM Hepes pH 7.5, 50 mM KCl, 5 mM MgCl2, 0.1% (by vol) 2-mercaptoethanol before resuspension in 50 mM Tris-HCl pH 7.5, 0.1 mM EGTA, 0.03% (by mass) Brij 35, 0.6 M NaCl, 0.1% (by vol) 2-mercaptoethanol. Aliquots of the supernatant, the resuspended pellet and the suspension before centrifugation were either assayed for myosin P-light chain phosphatase activity or denatured in SDS and analysed by SDS/polyacrylamide gel electrophoresis.

T1 sequence (P62143 whole entry): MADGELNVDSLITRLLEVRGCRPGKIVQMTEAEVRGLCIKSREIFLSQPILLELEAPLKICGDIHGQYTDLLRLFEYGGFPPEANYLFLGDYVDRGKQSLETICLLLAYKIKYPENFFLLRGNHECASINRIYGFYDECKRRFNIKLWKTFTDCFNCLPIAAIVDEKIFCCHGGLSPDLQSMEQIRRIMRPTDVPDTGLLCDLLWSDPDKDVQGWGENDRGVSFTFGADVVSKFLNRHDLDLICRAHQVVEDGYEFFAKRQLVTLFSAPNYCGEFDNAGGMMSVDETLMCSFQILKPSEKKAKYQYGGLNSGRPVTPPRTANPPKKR
PP1c (γ1-isoform), sequence (P36873 whole entry, the tested form may be a part, canonical isoform): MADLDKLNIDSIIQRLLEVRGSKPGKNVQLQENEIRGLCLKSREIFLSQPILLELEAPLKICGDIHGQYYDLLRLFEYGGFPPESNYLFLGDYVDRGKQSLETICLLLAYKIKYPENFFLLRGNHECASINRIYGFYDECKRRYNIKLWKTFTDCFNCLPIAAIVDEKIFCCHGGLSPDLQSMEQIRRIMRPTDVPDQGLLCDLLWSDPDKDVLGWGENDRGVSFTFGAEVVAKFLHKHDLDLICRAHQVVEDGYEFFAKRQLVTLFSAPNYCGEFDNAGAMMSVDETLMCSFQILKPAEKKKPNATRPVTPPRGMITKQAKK
T2 sequence (P10587 whole entry): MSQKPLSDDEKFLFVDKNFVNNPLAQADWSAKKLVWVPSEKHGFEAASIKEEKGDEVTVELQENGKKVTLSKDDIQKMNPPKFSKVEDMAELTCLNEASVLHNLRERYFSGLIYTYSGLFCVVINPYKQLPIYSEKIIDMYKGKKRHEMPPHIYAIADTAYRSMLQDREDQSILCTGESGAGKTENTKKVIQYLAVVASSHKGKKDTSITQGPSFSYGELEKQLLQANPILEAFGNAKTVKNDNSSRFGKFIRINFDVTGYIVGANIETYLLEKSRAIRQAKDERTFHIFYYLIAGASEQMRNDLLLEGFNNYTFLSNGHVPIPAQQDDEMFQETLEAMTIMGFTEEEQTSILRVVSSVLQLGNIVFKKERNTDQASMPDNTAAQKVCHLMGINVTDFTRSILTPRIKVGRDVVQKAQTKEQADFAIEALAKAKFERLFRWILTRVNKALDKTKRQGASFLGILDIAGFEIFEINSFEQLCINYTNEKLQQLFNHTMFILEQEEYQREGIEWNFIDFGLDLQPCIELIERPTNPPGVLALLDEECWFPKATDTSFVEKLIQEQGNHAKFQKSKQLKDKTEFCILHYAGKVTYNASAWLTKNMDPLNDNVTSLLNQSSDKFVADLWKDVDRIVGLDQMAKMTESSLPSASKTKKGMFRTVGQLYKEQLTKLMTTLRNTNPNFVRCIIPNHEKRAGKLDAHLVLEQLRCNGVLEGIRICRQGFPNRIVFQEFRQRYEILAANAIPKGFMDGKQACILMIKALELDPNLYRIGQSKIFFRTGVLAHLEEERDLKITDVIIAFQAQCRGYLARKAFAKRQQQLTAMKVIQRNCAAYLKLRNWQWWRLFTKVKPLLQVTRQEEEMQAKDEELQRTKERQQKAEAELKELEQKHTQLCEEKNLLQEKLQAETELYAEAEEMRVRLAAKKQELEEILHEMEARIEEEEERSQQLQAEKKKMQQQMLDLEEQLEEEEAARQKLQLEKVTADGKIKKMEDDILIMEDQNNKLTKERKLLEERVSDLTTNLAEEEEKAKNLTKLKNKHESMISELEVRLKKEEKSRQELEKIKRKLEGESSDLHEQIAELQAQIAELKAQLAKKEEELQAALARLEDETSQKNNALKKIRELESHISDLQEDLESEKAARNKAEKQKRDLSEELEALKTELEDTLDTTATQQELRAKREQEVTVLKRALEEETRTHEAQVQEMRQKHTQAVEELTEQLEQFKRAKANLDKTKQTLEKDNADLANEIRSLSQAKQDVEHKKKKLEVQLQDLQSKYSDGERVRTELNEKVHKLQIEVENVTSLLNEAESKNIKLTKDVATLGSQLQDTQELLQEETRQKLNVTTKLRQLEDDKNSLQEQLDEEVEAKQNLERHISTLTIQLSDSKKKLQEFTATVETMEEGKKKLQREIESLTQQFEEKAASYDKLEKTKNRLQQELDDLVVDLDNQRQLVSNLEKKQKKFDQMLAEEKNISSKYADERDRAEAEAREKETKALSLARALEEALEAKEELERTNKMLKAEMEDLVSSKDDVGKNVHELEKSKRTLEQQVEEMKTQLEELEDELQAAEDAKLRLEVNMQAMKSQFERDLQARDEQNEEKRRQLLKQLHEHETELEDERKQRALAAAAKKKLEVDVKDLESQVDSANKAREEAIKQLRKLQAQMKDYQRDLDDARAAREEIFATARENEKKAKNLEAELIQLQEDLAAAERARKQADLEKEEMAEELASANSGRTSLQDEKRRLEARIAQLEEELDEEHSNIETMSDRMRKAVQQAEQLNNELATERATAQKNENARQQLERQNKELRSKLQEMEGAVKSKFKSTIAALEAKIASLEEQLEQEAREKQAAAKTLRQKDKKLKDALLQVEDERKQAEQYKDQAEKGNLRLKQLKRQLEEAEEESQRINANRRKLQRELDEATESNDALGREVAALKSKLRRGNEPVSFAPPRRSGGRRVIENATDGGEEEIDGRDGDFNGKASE
T2 sequence (P02612 whole entry partner): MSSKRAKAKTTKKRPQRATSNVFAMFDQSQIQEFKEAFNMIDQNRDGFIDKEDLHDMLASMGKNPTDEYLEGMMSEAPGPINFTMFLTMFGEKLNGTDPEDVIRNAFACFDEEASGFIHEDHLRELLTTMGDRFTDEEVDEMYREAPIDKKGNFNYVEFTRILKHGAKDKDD
T2 sequence (P02607 whole entry partner): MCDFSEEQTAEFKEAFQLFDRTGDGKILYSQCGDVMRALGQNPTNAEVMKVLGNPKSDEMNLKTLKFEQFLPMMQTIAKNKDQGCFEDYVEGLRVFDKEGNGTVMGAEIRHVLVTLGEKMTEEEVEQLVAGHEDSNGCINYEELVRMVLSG

| Molecule | interaction with PP1 in Far Western experiments (PP1c (γ1-isoform)) | effect on the phosphorylase phosphatase activity of PP1c (PP1c [1]) | concentration needed to modulate the specificity of PP1c compared to thrombin-cleaved M110-(M1-E309) (PP1c [2]) [fold higher] | effect on the MLC20 phosphatase activity of PP1c (PP1c [2]) | binding to myosin (myosin) |
| --- | --- | --- | --- | --- | --- |
| B1 | interacted with PP1 | – | – | – | – |
| B2 | – | modified the specificity of PP1 similarly | 10 | modified the specificity of PP1 similarly | – |
| B3 | – | inhibited the phosphorylase phosphatase activity of PP1c in a similar manner to M110-(M1-A150) | – | less effective than M110-(M1-A150) or M110-(M1-E309) in stimulating the MLC20 phosphatase activity of PP1c | – |
| B4 | – | inhibited the dephosphorylation of glycogen phosphorylase | – | stimulated the PP1c-catalysed dephosphorylation of the myosin P-light chain | neither GST-M110-(M1-S477) nor GST-M110-(M1-E309) bound to myosin |
| B5 | interacted with PP1 | – | – | – | – |
